What all share (test): cell-based or functional assay
In experiment [1] the target is Cyno IL-12 (cynomolgus monkey).
A further experiment deals with Baboon IL-12 (baboon).
In experiment [2] the target is recombinant human IL-12 (human) (UniProt P29459).
Experiment [3] addresses Rhesus IL-12 (rhesus monkey) (UniProt P48091).
A further experiment addresses murine IL-12 (mouse) (UniProt P43431).

murine IL-12 (mouse), sequence (P43431 23-215, chain 1 of 2): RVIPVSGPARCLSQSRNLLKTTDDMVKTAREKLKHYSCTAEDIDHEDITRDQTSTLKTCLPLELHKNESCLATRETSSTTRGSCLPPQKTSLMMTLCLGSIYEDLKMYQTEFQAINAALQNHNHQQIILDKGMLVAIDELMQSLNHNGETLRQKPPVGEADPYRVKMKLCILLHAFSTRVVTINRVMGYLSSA
murine IL-12 (mouse), sequence (P43432 23-335, chain 2 of 2, further chain): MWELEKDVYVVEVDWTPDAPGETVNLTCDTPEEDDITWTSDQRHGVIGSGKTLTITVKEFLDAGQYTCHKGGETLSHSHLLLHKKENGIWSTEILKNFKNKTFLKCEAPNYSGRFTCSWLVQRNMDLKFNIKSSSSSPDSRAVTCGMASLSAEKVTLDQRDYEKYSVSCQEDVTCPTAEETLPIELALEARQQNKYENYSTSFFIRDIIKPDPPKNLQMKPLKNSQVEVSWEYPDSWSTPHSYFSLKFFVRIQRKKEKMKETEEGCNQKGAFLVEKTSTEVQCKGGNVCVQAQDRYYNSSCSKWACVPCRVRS
Rhesus IL-12 (rhesus monkey), sequence (P48091 23-219, chain 1 of 2): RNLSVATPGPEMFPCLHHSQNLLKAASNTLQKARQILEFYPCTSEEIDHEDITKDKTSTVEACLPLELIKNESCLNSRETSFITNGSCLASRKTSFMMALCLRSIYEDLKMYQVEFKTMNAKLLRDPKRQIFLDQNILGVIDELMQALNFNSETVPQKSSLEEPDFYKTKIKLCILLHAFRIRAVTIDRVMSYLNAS
Rhesus IL-12 (rhesus monkey), sequence (P48095 23-328, chain 2 of 2, further chain): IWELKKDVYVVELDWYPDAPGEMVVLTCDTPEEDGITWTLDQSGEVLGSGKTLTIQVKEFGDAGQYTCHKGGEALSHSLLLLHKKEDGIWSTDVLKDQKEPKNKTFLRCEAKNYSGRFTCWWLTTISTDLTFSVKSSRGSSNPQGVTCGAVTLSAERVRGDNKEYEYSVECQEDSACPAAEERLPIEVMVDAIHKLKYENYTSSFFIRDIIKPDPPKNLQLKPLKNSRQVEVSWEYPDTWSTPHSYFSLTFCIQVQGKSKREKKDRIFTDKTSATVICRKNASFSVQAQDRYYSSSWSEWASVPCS
recombinant human IL-12 (human), sequence (P29459 23-219, chain 1 of 2): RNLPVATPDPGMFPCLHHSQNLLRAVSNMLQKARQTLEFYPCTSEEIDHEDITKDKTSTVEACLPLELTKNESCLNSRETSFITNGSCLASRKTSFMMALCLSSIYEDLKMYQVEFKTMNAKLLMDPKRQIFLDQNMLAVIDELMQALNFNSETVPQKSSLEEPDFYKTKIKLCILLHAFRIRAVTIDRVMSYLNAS
recombinant human IL-12 (human), sequence (P29460 23-328, chain 2 of 2, further chain): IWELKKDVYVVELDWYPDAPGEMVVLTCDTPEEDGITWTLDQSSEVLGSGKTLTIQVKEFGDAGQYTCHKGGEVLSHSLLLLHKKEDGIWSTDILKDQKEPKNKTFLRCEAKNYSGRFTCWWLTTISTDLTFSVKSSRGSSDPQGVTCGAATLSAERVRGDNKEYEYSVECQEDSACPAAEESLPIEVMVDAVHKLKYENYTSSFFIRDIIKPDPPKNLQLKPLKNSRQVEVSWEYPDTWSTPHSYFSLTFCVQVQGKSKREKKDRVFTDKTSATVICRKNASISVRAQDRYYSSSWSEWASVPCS

C8.6.2 (antibody): the IC50 (M), species cross reactivity bioassay in experiment [1] was found to be 1.2e-10 M; in the experiment with Baboon IL-12 (baboon) it was 2e-10 M; in experiment [2], 5e-11 M; in experiment [3], 1e-10 M.
In the experiment with murine IL-12 (mouse), C17.15 (antibody) gave an IC50 (M), species cross reactivity bioassay of 3e-11 M and a PHA blast Assay IC50 of 0.014 nM.

Values taken from EP2168984B1.
